Experimental data from paper doi:10.1101/457440v1.
Residue numbers refer to the chain shown, from its start. Names and notes keep the numbering of the source.

B1: MsCHI-2 (Medicago sativa; G95V) (protein)
chain: MAASITAITVENLEYPAVVTSPVTGKSYFLGGAGERGLTIEGNFIKFTAIGVYLEDIAVASLAAKWKGKSSEELLETLDFYRDIISGPFEKLIRVSKIRELSGPEYSRKVMENCVAHLKSVGTYGDAEAEAMQKFAEAFKPVNFPPGASVFYRQSPDGILGLSFSPDTSIPEKEAALIENKAVSSAVLETMIGEHAVSPDLKRCLAARLPALLNEGAFKIGN
B2: MsCHI-2 (Medicago sativa; K97M) (protein)
chain: B1 chain with V95G, K97M
B3: MsCHI-2 (Medicago sativa; R36K) (protein)
chain: B1 chain with R36K, V95G
B4: MsCHI-2 (Medicago sativa) (protein)
chain: B1 chain with V95G
B5: MsCHI-2 (Medicago sativa; G95T) (protein)
chain: B1 chain with V95T
B6: AtCHI-1 (Arabidopsis thaliana) (protein)
chain: MSSSNACASPSPFPAVTKLHVDSVTFVPSVKSPASSNPLFLGGAGVRGLDIQGKFVIFTVIGVYLEGNAVPSLSVKWKGKTTEELTESIPFFREIVTGAFEKFIKVTMKLPLTGQQYSEKVTENCVAIWKQLGLYTDCEAKAVEKFLEIFKEETFPPGSSILFALSPTGSLTVAFSKDDSIPETGIAVIENKLLAEAVLESIIGKNGVSPGTRLSVAERLSQLMMKNKDEKEVSDHSVEEKLAKEN
B7: AtCHI-1 (Arabidopsis thaliana; V106G) (protein)
chain: B6 chain with V106G

What was measured:
[1] = substrate: O=C(/C=C/c1ccc(O)cc1)c1c(O)cc(O)cc1O; assay: purified protein
[2] = substrate: O=C(/C=C/c1ccc(O)cc1)c1ccc(O)cc1O; assay: purified protein
[3] = substrate: O=C(/C=C/c1ccc(O)cc1)c1ccc(O)cc1O; assay: Michaelis-Menten kinetics of cyclization; assay type: biochemical, Medicago sativa

| Protein | Km [1] [µM] | kcat [1] | Km [2] [µM] | kcat [2] | Km [3] [µM] | kcat [3] [s⁻¹] |
| --- | --- | --- | --- | --- | --- | --- |
| B1 | 5.3 ± 2.6 | 512 ± 26 min⁻¹ | 65 ± 10 | 2.16 ± 0.02 min⁻¹ |  |  |
| B2 | 14.5 ± 4.2 | 1,300 ± 154 min-1 | 25.7 ± 2.1 | 658 ± 11 min⁻¹ |  |  |
| B3 | 98.3 ± 1.5 | 25.4 ± 1.1 min⁻¹ |  |  |  |  |
| B4 | 112 ± 28 | 11,180 ± 1,380 min-1 | 8.4 ± 2.0 | 2,250 ± 165 min-1 |  |  |
| B5 |  |  |  |  | 117 ± 12 | 0.388 ± 0.0283 |
| B6 | 62 ± 9 | 379 ± 35 min⁻¹ | 16.8 ± 3.5 | 0.064 ± 0.005 min⁻¹ |  |  |
| B7 | 19.0 ± 0.5 | 332 ± 34 min⁻¹ |  |  |  |  |
